Experimental data as given in publication PMC12421882, “ThIPK1 regulates lignocellulolytic enzyme expression during wood degradation in white-rot fungi” (mBio, 2025).

Substrate: O=P(O)(O)O[C@@H]1[C@@H](OP(=O)(O)O)[C@H](OP(=O)(O)O)[C@H](O)[C@H](OP(=O)(O)O)[C@H]1OP(=O)(O)O
Experiment: Kinase-Glo Max luminescent kinase assay; Michaelis-Menten nonlinear regression
Type: biochemical, Trametes hirsuta
Settings: 300 µM ATP, 5 mM MgCl2, 50 mM NaCl, 50 mM Tris pH 7.5, 28°C

B1: ThIPK1 (Trametes hirsuta) (protein)
chain: MENDAPIIGDTSPQDWKYISEGGSTIVFSYVGPPHPSFDGTALRLRKGPTPAHEDPEKYEKPSLAPAEPSQEPEASAAGGADDEEPDDPTVVFQRTVIERLVPTAHLPRLQPVRVARAWLAQLAARTEALRPAERRARDAIDLGRRKAVLATDLVGGEGWAVEIKPKWGFLPQPAYLSPETRAIKTRTCRFCMHAQLKKTEGEDVALGYCPLDLYSGDAGRVERALRELWDVWVGSGGAVNNLRVFVQGKMVKPSADPASLAPLTAQLLPPTSTTSPDSEPPAATRPPDTLRDAFIATLLPLLLDTPVLRTLSTLQRTLDALDIEGLAALWARVHPAHALGTGPGPGAADPDIAAWARFVDEHIDRLAQAAEDAKGAGEGEGQGENGSEVPATEDELRYRVAAYLLGASFKDCSLILRMRPHAQGTVTVIDLDVKSADRLGKWAALDREIVDAYRGVSNARRCVDAHYGAVPLP
notes: full-length cDNA in pET28a(+), E. coli BL21(DE3), Ni-NTA
Work on B1 yielded a Km of 31.42 µM.
